Data from US20220064289A1 (SHENZHEN BEIKE BIOTECHNOLOGY, published 2022).

Target: T1, CD19 antigen (UniProt P15391 20-556, limits assumed)
T1 construct: whole, on cells; the cell lines are human
T1 sequence (looked up): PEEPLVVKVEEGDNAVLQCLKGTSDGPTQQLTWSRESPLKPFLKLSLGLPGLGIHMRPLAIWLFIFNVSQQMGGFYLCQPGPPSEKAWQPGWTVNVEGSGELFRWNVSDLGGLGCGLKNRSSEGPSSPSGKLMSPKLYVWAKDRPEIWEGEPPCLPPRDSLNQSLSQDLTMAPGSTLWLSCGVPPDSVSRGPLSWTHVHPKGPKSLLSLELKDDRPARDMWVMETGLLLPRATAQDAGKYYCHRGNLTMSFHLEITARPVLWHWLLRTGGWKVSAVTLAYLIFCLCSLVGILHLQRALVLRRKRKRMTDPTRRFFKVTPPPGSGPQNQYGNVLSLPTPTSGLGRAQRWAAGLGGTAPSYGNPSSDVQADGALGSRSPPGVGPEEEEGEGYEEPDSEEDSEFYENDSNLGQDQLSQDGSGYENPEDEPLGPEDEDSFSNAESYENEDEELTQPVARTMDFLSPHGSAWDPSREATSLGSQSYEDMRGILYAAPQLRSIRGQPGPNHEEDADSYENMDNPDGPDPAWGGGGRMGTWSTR
Experiment: flow cytometry on BV173 cells, detected with FITC-labeled Protein L
Method: 1. T cell and BV173 cell experimental group: 5 μg of multi-function proteins TiTE-15, 16 were added to BV173 cells and 3×10\hat{ }5 T cells derived from mononuclear cell-rich white membrane layer of normal human peripheral blood by density gradient centrifugation, and stimulated by OKT3 (50 ng/mL) and IL2 (300 IU/mL) for 14 days, and incubated on ice for 30 min. The supernatant was removed by centrifugation and the cells were re-suspended in 200 μL of PBS. 2 μL of FITC-Labeled recombinant Protein L (ACRO Biosystem, RPL-PF141) was added and incubated on ice for 30 min. The supernatant was removed by centrifugation, washed twice in 500 μL PBS, and re-suspended in 200 μL of PBS.
T cell and BV173 cell negative control group: 3*10E5 T cells respectively (PBMC stimulated with 50 ng/mL OKT3, 300 IU/mL IL2) were mixed with BV173 cells (ATCC) first, and 2 μL APC Mouse anti-Human CD279 (BD, Cat. No. 558694) was added to the cells and incubated on ice for 30 min. The supernatant was removed by centrifugation, and the cells were re-suspended in 200 μL of PBS as a negative control.

- binding result: binds
B1: multifunctional protein TiTE-15 (other)
chain: DIQMTQTTSSLSASLGDRVTISCRASQDISKYLNWYQQKPDGTVKLLIYHTSRLHSGVPSRFSGSGSGTDYSLTISNLEQEDIATYFCQQGNTLPYTFGGGTKLEITGSTSGSGKPGSGEGSTKGEVKLQESGPGLVAPSQSLSVTCTVSGVSLPDYGVSWIRQPPRKGLEWLGVIWGSETTYYNSALKSRLTIIKDNSKSQVFLKMNSLQTDDTAIYYCAKHYYYGGSYAMDYWGQGTSVTVSSGGGGSITCPPPMSVEHADIWVKSYSLYSRERYICNSGFKRKAGTSSLTECVLNKATNVAHWTTPSLKCIRDPALVHQSGGSGGGGSGGGSGGGGSLQDIQMTQSPSSLSASVGDRVTITCRASQDIRNYLNWYQQKPGKAPKLLIYYTSRLESGVPSRFSGSGSGTDYTLTISSLQPEDFATYYCQQGNTLPWTFGQGTKVEIKGGGGSGGGGSGGGGSEVQLVESGGGLVQPGGSLRLSCAASGYSFTGYTMNWVRQAPGKGLEWVALINPYKGVSTYNQKFKDRFTISVDKSKNTAYLQMNSLRAEDTAVYYCARSGYYGDSDWYFDVWGQGTLVTV
notes: Main peptide chain alone, no co-peptide chain
